These are literature values, as cited in patent publication USRE43135E1, “Method of improving dough and bread quality” (Danisco A/S, priority 2001, dated 2012).

For series [1] the following is noted: enzyme expressed in a baculovirus system, Matos et al; cited from earlier work.
The conditions of series [2]: Withers-Martinez et al; cited from earlier work.

Turning to “43 KDa protein from drought-stressed cowpea: galactolipid acyl hydrolase of Matos et al, expressed in a baculovirus system; amino acid sequence SEQ ID No. 1”, in series [1], the “activity on triacylglycerol (triglyceride)” value is recorded as “no activity”, the “galactolipid acyl hydrolase activity” value was “preferentially galactolipid acyl hydrolase activity” and the phospholipid activity result is given as “some phospholipid activity”.

B1: HPL: human pancreas lipase (protein, UniProt P16233 17-465, looked up)
Pancreatic triacylglycerol …: KEVCYERLGCFSDDSPWSGITERPLHILPWSPKDVNTRFLLYTNENPNNFQEVAADSSSISGSNFKTNRKTRFIIHGFIDKGEENWLANVCKNLFKVESVNCICVDWKGGSRTGYTQASQNIRIVGAEVAYFVEFLQSAFGYSPSNVHVIGHSLGAHAAGEAGRRTNGTIGRITGLDPAEPCFQGTPELVRLDPSDAKFVDVIHTDGAPIVPNLGFGMSQVVGHLDFFPNGGVEMPGCKKNILSQIVDIDGIWEGTRDFAACNHLRSYKYYTDSIVNPDGFAGFPCASYNVFTANKCFPCPSGGCPQMGHYADRYPGKTNDVGQKFYLDTGDASNFARWRYKVSVTLSGKKVTGHILVSLFGNKGNSKQYEIFKGTLKPDSTHSNEFDSDVDVGDLQMVKFIWYNNVINPTLPRVGASKIIVETNVGKQFNFCSPETVREEVLLTLTPC
For the molecule B1, the activity on triglyceride result in series [2] is given as “only activity on triglyceride”.

B2: GPLRP2: guinea pig pancreatic lipase-related protein 2 (protein, UniProt P81139 1-434, looked up)
Pancreatic lipase-related …: AEVCYSHLGCFSDEKPWAGTSQRPIKSLPSDPKKINTRFLLYTNENQNSYQLITATDIATIKASNFNLNRKTRFIIHGFTDSGENSWLSDMCKNMFQVEKVNCICVDWKGGSKAQYSQASQNIRVVGAEVAYLVQVLSTSLNYAPENVHIIGHSLGAHTAGEAGKRLNGLVGRITGLDPAEPYFQDTPEEVRLDPSDAKFVDVIHTDISPILPSLGFGMSQKVGHMDFFPNGGKDMPGCKTGISCNHHRSIEYYHSSILNPEGFLGYPCASYDEFQESGCFPCPAKGCPKMGHFADQYPGKTNAVEQTFFLNTGASDNFTRWRYKVTVTLSGEKDPSGNINVALLGKNGNSAQYQVFKGTLKPDASYTNSIDVELNVGTIQKVTFLWKRSGISVSKPKMGASRITVQSGKDGTKYNFCSSDIVQENVEQTLSPC
With B2, in series [2], the “activity on galactolipids and phospholipids” value is “has activity on galactolipids and phospholipids”; the activity on triglyceride result is reported as “reduced activity”.
